{
  "source": "paper PMC10538664",
  "about": "(PLOS Pathogens, 2023)",
  "target": "prototype SARS-CoV-2 tandem RBD homotrimer (PPP) (SARS-CoV-2, UniProt P0DTC2)",
  "assay": "cryo-EM structure",
  "conditions": "both partners purified",
  "data": [
    {"binder": "fragment antigen binding (Fab) of mAb CB6 (Fab, V domains shown) VH: EVQLVESGGGLVQPGGSLRLSCAASGFTVSSNYMSWVRQAPGKGLEWVSVIYSGGSTFYADSVKGRFTISRDNSMNTLFLQMNSLRAEDTAVYYCARVLPMYGDYLDYWGQGTLVTVSS VL: not shown", "values": [
      {"measurement": "stoichiometry N", "result": 3}
    ]}
  ]
}
